Reference: US9505841B2, “Use of an anti-Ang2 antibody” (Samsung Electronics Co., Ltd., priority 2013, dated 2016)

Tests used:
Type in all cases: cell-based, human
[1] = tested on: HL-60 cells adhered to HUVEC cells; assay: Binding between inflammatory cells HL-60 and HUVEC induced by TNF-a; conditions: 1 ng/ml TNF-a; 0.2 ug/ml Ang1 or 0.1 ug/ml Ang2 + 0.5 ug/ml 10D6
Protocol: Meanwhile, if the expression of inflammatory adhesion substances (ICAM-1, E-selectin, etc.) of vascular endothelial cells is increased, binding between the inflammatory cells and the vascular endothelial cells are accelerated and inflammatory response is thus induced. To confirm this, an experiment for measuring binding between inflammatory cells HL-60 (ATCC) and HUVEC was conducted.
HUVEC cells (4×10^5) were cultured in a 24-mutiwell plate and treated with 0.1 ug/ml of Ang2 alone or 0.1 ug/ml of Ang2 together with 0.5 ug/ml of antibody 10D6, and a group in which 0.2 ug/ml of Ang1, and 0.1 ug/ml of Ang2 (R&D systems) and 0.5 ug/ml of Regeneron Co. antibody (RG antibody) were co-treated was included as a control group. As above, the HUVEC cells were treated with Angiopoietin and antibody and after 30-min. pre-incubation, they were treated with 1 ng/ml of TNF-a (eBioscience) to induce inflammatory response and incubated for 2 hours and 30 min.
After the HUVEC cells were washed with complete media (Lonza), HL-60 cells dyed with Calcein-AM (BD bioscience) solution were added at the amount of 2.5×10^5 cells to each well and incubated for 1 hour. […] The obtained lysate was transported to a 96-well plate, and fluorescence strengths derived from the HL-60 cells were measured at 485/535 nm (Ex/Em) setting using an Envision 2104 multilabel Reader (Perkin Elmer).

ICAM-1 = assay: LPS-induced mRNA expression of ICAM-1 in HUVEC (qPCR); conditions: 100 ng/ml LPS 5 hours, 0.2 ug/ml Ang1 or 0.1 ug/ml Ang2 + 0.5 ug/ml antibody
Protocol: (§1) To see anti-inflammatory effects by antibody 10D6, HUVEC (ATCC) cells (4×10^5) were treated with Ang2 alone or Ang2 together with antibody 10D6, and a group in which Ang1 and Ang2 (R&D systems) and Regeneron Co. antibody (RG antibody) were co-treated was included as a control group. HUVEC cells were treated with 0.2 ug/ml of Ang1, 0.1 ug/ml of Ang2, or 0.1 ug/ml of Ang2 and 0.5 ug/ml of antibody, respectively and after 30-min. pre-incubation, they were treated with 100 ng/ml of LPS (Sigma) to induce inflammatory response and incubated for 5 hours.
(§2) The degree of the inflammatory response was identified by measuring the mRNA expression degree of an inflammatory adhesion substance (ICAM-1, E-selectin). The cells were washed using PBS, RNA was extracted using RNeasy Mini kit (Qiagen), and among them, 2 ug of RNA was synthesized into cDNA using Transcriptor First Strand cDNA synthesis kit (Roche). qPCR reaction was performed using RT2 SYBR™ Green Mastermix (Qiagen) and LightCycler™ 480 Real-Time PCR System (Roche). As an internal control for calibrating the amount of RNA in a sample, HPRT1 was used, and qPCR complied with the following procedures with regard to all the primers.
(§3) Step 1: 95° C., 10 min; Step 2 (45 cycles): Step 2-1: 95° C., 15 sec; Step 2-2: 60° C., 1 min; Step 3: 65° C., 15 sec; Step 4: 95° C., continuous (every 20° C.); Step 6: 40° C., 10 sec.

E-selectin = assay: LPS-induced mRNA expression of E-selectin in HUVEC (qPCR); conditions: 100 ng/ml LPS 5 hours, 0.2 ug/ml Ang1 or 0.1 ug/ml Ang2 + 0.5 ug/ml antibody
Protocol: as §1, §2, §3

HUVEC monolayer = assay: In vitro vascular permeability assay (FITC-dextran); conditions: 200 ng/ml Ang1 alone or 200 ng/ml Ang2 + 1 ug/ml 10D6
Protocol: To see the cell permeability suppression effects of antibody 10D6, in vitro vascular permeability assay kit (Millipore) was employed. HUVEC (ATCC) cells (5×10^4) were added to a collagen-coated transwell and cultured for 2 days to prepare a confluent monolayer. It was treated with 200 ng/ml of Ang2 or 200 ng/ml of Ang1 (R&D systems) alone, or 200 ng/ml of Ang2 and 1 ug/ml of antibody 10D6, pre-incubated for 30 min. and then, treated with 100 ng/ml of LPS (Lipopolysaccharide; Sigma) or 100 ng/ml TNF-a (R&D systems) to induce the permeability of HUVEC monolayer. LPS or TNF-a weakens binding between HUVEC cells to form a gap therebetween, thereby increasing the migration of materials in the HUVEC monolayer. After 6-hour incubation for the LPS treatment group and 22-hour incubation for the TNF-a group, the upper chamber was treated with FITC-dextran (Millipore) and incubated for 18 min. The fluorescence of FITC-dextran migrated to the lower chamber was measured at 485/535 nm (Ex/Em) setting using an Envision 2104 multilabel Reader (Perkinelmer).

Akt, eNOS and 42/44 = assay: Phosphorylation of Tie2 downstream signaling proteins in HUVEC (immunoblot); conditions: 60 nM 10D6 + 40 nM Ang2, or Ang1 4 nM alone, 30 min
Protocol: To see whether antibody 10D6 induces the activation of the downstream signaling of a Tie2 receptor as well as the activation of the Tie2 receptor itself, the phosphorylation degrees of proteins participating in the downstream signaling when Ang2 alone or Ang2 and antibody 10D6 was treated were tested using immune blotting.
Specifically, HUVEC (ATCC) cells (1×10^6) were cultured in a 6-well culture dish using EGM-2 (Lonza) media at 37° C. and when they reached 80˜90% confluency, the media were replaced with serum-free media (Lonza) and cultured at 37° C. for 6 to 16 hours. The dish was washed once with PBS, and the cultured cells were treated with a mixture prepared by mixing 60 nM of the Ang2 antibody (10D6) with 40 nM of Ang2 protein (R&D systems) and letting them stand for 20 min. and further cultured for 30 min. For comparison, groups in which Ang1 (R&D systems) 4 nM, Ang2 (R&D systems) 40 nM, and Ang2 (R&D systems) 40 nM+anti-Ang2 antibody (Regeneron) 60 nM were treated respectively were prepared.
The cells were washed using PBS, treated with a lysis buffer (Roche), collected to a tube to be dissolved at 4° C. for 30 min. and then, centrifuged at 13,000 rpm for 15 min. to measure a supernatant. A sample buffer (Invitrogen) mixed with a reducing agent was added to 25 ug of a cell lysate, which was boiled at 95° C. for 5 min., and then, applied to NuPAGE Novex 4-12% Bis-Tris gel (Invitrogen) and transferred onto Nitrocellulose membrane (Invitrogen).
To see the presence of the phosphorylation of Akt, eNOS and 42/44 involved in the downstream signaling, the blots were blocked with PBST mixed with 3% (v/v) skim milk (Sigma) for 30 min. and then treated with an anti pAkt antibody, anti p-eNOS antibody, and anti p-42/44 antibody (all of them; cell signaling). The blots were reacted in a stripping buffer (Thermo) for 15 min. and then blocked again to identify Akt, eNOS, and 42/44 using an anti Akt antibody, anti eNOS antibody, and anti 42/44 antibody (all of them; cell signaling).

B1: Ang1: Angiopoietin-1 protein (R&D systems), ligand which activates the Tie2 receptor (protein, UniProt Q15389 16-498, looked up)
Angiopoietin-1: HIGCSNQRRSPENSGRRYNRIQHGQCAYTFILPEHDGNCRESTTDQYNTNALQRDAPHVEPDFSSQKLQHLEHVMENYTQWLQKLENYIVENMKSEMAQIQQNAVQNHTATMLEIGTSLLSQTAEQTRKLTDVETQVLNQTSRLEIQLLENSLSTYKLEKQLLQQTNEILKIHEKNSLLEHKILEMEGKHKEELDTLKEEKENLQGLVTRQTYIIQELEKQLNRATTNNSVLQKQQLELMDTVHNLVNLCTKEGVLLKGGKREEEKPFRDCADVYQAGFNKSGIYTIYINNMPEPKKVFCNMDVNGGGWTVIQHREDGSLDFQRGWKEYKMGFGNPSGEYWLGNEFIFAITSQRQYMLRIELMDWEGNRAYSQYDRFHIGNEKQNYRLYLKGHTGTAGKQSSLILHGADFSTKDADNDNCMCKCALMLTGGWWFDACGPSNLNGMFYTAGQNHGKLNGIKWHYFKGPSYSLRSTTMMIRPLDF
binding between HUVEC cells and HL-60 cells induced by TNF-a [1]: remarkably suppressed
expression of ICAM-1 induced by LPS (ICAM-1): remarkably suppressed
expression of E-selectin induced by LPS (E-selectin): remarkably suppressed
vascular permeability increased by LPS (HUVEC monolayer; 100 ng/ml LPS, 6 hour): decreased to the control level
vascular permeability increased by TNF-a (HUVEC monolayer; 100 ng/ml TNF-a, 22 hour): decreased to the control level
downstream signaling (phosphorylation of Akt, eNOS, 42/44) compared to Ang2 sole-treatment and Ang2 + RG antibody (Akt, eNOS and 42/44): strongly induced
